Patent US20250171549A1
“And” between values parts separate entries of the source, which are not always exact repeats. Equal entries are not always repeated.

Tests used:
[1] = molecular target: P_1-12 construct (truncated N-terminal peptide of human CCR8 fused to V5 tag, chicken albumin, FLAG tag, BAP and H3G) (human); test: flow cytometry, construct on streptavidin beads
[2] = molecular target: P_1-35 construct (full-length N-terminal peptide of human CCR8 fused to V5 tag, chicken albumin, FLAG tag, BAP and H3G) (human); test: flow cytometry, construct on streptavidin beads
[3] = molecular target: P_13-24 construct (truncated N-terminal peptide of human CCR8 fused to V5 tag, chicken albumin, FLAG tag, BAP and H3G) (human); test: flow cytometry, construct on streptavidin beads
[4] = molecular target: P_19-30 construct (truncated N-terminal peptide of human CCR8 fused to V5 tag, chicken albumin, FLAG tag, BAP and H3G) (human); test: flow cytometry, construct on streptavidin beads
[5] = molecular target: T1, P_25-35 construct (truncated N-terminal peptide of human CCR8 fused to V5 tag, chicken albumin, FLAG tag, BAP and H3G) (human); test: flow cytometry, construct on streptavidin beads
T1 sequence (chain, biotinylated in vivo at BAP): CDAELIQTNGK

[6] = molecular target: P_7-18 construct (truncated N-terminal peptide of human CCR8 fused to V5 tag, chicken albumin, FLAG tag, BAP and H3G) (human); test: flow cytometry, construct on streptavidin beads
[7] = molecular target: cynomolgus monkey CCR8 (comprising threonine at position four) (cynomolgus monkey); test: flow cytometry, primary cynomolgus Tregs, purified antibody 20 ug/ml
human CCR8 (human) [8] = molecular target: human CCR8 (human) (UniProt P51685); test: flow cytometry, primary human Tregs (PBMC, CD4+CD25+CD127- gate)
[9] = molecular target: cynomolgus monkey CCR8 (comprising threonine at position four) (cynomolgus monkey); test: flow cytometry, primary cynomolgus Tregs (PBMC, CD4+CD25+CD127- gate)
murine CCR8 (murine) = murine CCR8 (murine) (UniProt P56484); test: flow cytometry, HEK293T transfectants, 5 ug/mL
rat CCR8 (rat) = test: flow cytometry, HEK293T transfectants, 5 ug/mL
human CCR8 (human) [10] = molecular target: human CCR8 (human) (UniProt P51685); test: flow cytometry, HuT78 cells, 5 ug/mL
[11] = molecular target: human CCR8 with an A27G point mutation (human) (UniProt P51685); test: flow cytometry, HEK293T transfectants, 5 ug/mL
Sequence of human CCR8 with an A27G point mutation (human) (P51685 whole entry A27G): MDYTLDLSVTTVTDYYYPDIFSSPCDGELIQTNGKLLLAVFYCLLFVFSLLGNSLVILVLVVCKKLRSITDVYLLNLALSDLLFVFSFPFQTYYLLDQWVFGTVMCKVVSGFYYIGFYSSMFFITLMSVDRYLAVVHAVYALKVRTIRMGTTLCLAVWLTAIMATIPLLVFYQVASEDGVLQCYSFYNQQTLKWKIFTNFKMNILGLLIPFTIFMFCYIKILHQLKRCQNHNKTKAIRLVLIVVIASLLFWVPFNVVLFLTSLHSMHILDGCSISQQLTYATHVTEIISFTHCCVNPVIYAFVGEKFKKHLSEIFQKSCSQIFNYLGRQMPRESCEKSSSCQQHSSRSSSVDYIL

Sequence of P_1-35 construct (full-length N-terminal peptide of human CCR8 fused to V5 tag, chicken albumin, FLAG tag, BAP and H3G) (human) (chain, as listed by the source): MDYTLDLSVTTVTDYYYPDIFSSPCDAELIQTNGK
Sequence of cynomolgus monkey CCR8 (comprising threonine at position four) (cynomolgus monkey) (O97665 other isoform, or with tags, fused parts or gaps): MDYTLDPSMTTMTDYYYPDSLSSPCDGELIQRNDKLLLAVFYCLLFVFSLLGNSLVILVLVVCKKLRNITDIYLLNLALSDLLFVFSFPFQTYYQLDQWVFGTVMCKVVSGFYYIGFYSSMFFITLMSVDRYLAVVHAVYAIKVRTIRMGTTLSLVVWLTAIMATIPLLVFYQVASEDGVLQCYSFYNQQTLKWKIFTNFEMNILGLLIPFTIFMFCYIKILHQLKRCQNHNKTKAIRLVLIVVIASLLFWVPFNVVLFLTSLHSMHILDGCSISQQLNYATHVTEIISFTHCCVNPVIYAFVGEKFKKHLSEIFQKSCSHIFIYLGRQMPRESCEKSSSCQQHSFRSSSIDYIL
Sequence of anti-human CCR8 antibody clone 433H (BD 747578) (VH): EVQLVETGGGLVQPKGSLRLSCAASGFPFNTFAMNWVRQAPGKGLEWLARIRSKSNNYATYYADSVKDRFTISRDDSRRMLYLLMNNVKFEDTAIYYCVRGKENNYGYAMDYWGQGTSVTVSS
Sequence of anti-human CCR8 antibody clone 433H (BD 747578) (VL): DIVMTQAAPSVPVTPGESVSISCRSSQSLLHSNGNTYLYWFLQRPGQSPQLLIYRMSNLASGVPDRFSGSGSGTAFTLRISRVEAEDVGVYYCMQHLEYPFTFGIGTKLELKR
Sequence of human CCR8 (human) (P51685 whole entry): as the sequence (P51685 whole entry A27G) above, with G27A counted along it
Sequence of rat CCR8 (rat) (P56484 other isoform, or with tags, fused parts or gaps): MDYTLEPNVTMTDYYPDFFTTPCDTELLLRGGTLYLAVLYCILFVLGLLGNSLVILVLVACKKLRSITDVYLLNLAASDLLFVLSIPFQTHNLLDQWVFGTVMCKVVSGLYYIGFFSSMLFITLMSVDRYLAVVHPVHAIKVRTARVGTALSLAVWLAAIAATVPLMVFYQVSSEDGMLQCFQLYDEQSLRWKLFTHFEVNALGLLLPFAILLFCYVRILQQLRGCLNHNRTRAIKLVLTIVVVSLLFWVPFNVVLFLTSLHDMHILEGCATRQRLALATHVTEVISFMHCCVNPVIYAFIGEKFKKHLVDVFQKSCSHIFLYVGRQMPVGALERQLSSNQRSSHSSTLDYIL
Sequence of murine CCR8 (murine) (P56484 whole entry): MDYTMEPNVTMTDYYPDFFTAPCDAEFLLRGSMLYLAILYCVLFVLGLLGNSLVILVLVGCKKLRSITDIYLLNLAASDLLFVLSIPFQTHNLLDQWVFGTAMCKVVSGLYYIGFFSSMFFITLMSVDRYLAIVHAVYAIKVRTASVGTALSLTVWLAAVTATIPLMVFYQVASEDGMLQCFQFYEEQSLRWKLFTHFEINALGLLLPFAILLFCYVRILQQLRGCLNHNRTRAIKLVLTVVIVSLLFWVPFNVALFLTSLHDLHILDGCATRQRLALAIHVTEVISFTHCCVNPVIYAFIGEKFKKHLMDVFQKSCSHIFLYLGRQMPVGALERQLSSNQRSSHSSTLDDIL

| Substance | Median Fluorescence of Sample/Median Fluorescence of Negative Control [1] | Median Fluorescence of Sample/Median Fluorescence of Negative Control [2] | Median Fluorescence of Sample/Median Fluorescence of Negative Control [3] | Median Fluorescence of Sample/Median Fluorescence of Negative Control [4] | Median Fluorescence of Sample/Median Fluorescence of Negative Control [5] | Median Fluorescence of Sample/Median Fluorescence of Negative Control [6] | CCR8+CD127-CD25+CD4, % positive [7] | CCR8+CD127-CD25+CD4, % positive (human CCR8 (human) [8]) | CCR8+CD127-CD25+CD4, % positive [9] | binding by FACS (read-out not named) (murine CCR8 (murine)) | binding by FACS (read-out not named) (rat CCR8 (rat)) | binding by FACS (read-out not named) (human CCR8 (human) [10]) | binding by FACS (read-out not named) [11] |
| --- | --- | --- | --- | --- | --- | --- | --- | --- | --- | --- | --- | --- | --- |
| Negative control (Table 6) | 1 | 1 | 1 | 1 | 1.1 | 1 |  |  |  |  |  |  |  |
| anti-human CCR8 antibody clone 433H (BD 747578) | 0.9 | 290 | 300 | 0.9 | 0.9 | 0.9 | 66.2% and 63.7% |  |  |  |  |  |  |
| anti-FLAG antibody (clone M2, Sigma F3165/F1804) | 596 | 522 | 628 | 590 | 582 | 589 |  |  |  |  |  |  |  |
| Cyno IgG2a (antibody) |  |  |  |  |  |  |  | 0% and 0.1% | 0.3% and 0.8% |  |  |  |  |
| SA214G2 (antibody) |  |  |  |  |  |  |  |  |  | 56800 | 1590 |  |  |
| anti-human CCR8 antibody clone L263G8 (BioLegend, 360602) | 0.9 | 751 | 285 | 0.9 | 0.9 | 0.9 |  |  |  |  |  | 4500 | 41400 |
| anti-V5 antibody (clone SV5-Pk1; AbD Serotec, MCA 1360) | 1090 | 953 | 1300 | 1020 | 1090 | 1090 |  |  |  |  |  |  |  |
| Hu IgG2b (antibody) |  |  |  |  |  |  |  | 1.5% and 0% and 1.9% | 11.9% and 11.3% |  |  |  |  |
